Experimental findings from PMC8907193 (2022) are described below.

Positions count from the first letter of the chain named. In names and notes the source's numbering stands.

In assay [1] the target is T1, biotinylated human 20S proteasome (human, UniProt P60900 1-246; P25787 1-234; P25789 1-261; O14818 1-248; P28066 1-241; P25786 …). The assay can be described thus: BLI.
The target of assay [2] is T1, biotinylated human 20S proteasome. The assay is described as follows: BLI. This is another data set of the same source.

B1: PA26^YF (other)
chain: PPKRAALIQNLRDSYTETSSFAVIEEWAAGTLQEIEGIAKAAAEAHGVIRNSTYGRAQAEKSPEQLLGVLQRYQDLCHNVYCQAETIRTVIAIRIPEHKEADNLGVAVQHAVLKIIDELEIKTLGSGEKSGSGGAPTPIGMYALREYLSARSTVEDKLLGSVDAESGKTKGGSQSPSLLLELRQIDADFMLKVELATTHLSTMVRAVINAYLLNWKKLIQPRTGNLSYFT
In general, koff refers to a measure of how fast the partners let go of each other. The low end stands for a long-lived complex, the high end for a short-lived complex. In general, Kd refers to the free concentration of one partner at which half of the binding sites on the other are occupied at equilibrium, for simple one-to-one binding. Low values mean higher affinity, high ones lower affinity. The molecule B1 yielded a koff in assay [1] of 0.00026 s⁻¹. The Kd in assay [2] stood at 0.22 nM.

B2: wild-type PA26 (T. brucei) (natural protein)
chain: B1 chain with A101E, N225S, L226D, S227H, Y228M, F229V, T230S
B2 registered a koff in assay [1] of 0.00029 s⁻¹. In assay [2], the Kd worked out at 0.1 nM.

B3: PA26^E102A-Opt5 (other)
chain: B1 chain with F229Y
For the molecule B3, the koff in assay [1] was 0.00016 s⁻¹.
